This assay deals with T1, PPARα bait (pCLG-PPARα), full-length PPARα fused to a mutant leptin receptor (UniProt Q07869 1-468).
T1 sequence: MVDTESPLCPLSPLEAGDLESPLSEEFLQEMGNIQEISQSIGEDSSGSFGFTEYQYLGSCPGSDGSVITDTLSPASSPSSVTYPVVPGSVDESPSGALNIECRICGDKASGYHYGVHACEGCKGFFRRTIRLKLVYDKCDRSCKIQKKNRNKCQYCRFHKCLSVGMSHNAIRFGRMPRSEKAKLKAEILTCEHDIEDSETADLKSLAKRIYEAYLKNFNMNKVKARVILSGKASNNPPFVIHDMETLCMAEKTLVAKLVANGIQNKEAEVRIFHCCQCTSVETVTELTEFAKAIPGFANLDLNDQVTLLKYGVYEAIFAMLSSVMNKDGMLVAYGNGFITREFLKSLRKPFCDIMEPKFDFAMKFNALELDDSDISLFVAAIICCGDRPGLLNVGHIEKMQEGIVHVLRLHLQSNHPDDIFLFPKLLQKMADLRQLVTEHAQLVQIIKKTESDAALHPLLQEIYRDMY
The experiment in a line: two-hybrid.

B1: ERRα prey (pMG1-ERRα), full-size ERRα ORF coupled to gp130 (natural protein)
chain: MSSQVVGIEPLYIKAEPASPDSPKGSSETETEPPVALAPGPAPTRCLPGHKEEEDGEGAGPGEQGGGKLVLSSLPKRLCLVCGDVASGYHYGVASCEACKAFFKRTIQGSIEYSCPASNECEITKRRRKACQACRFTKCLRVGMLKEGVRLDRVRGGRQKYKRRPEVDPLPFPGPFPAGPLAVAGGPRKTAAPVNALVSHLLVVEPEKLYAMPDPAGPDGHLPAVATLCDLFDREIVVTISWAKSIPGFSSLSLSDQMSVLQSVWMEVLVLGVAQRSLPLQDELAFAEDLVLDEEGARAAGLGELGAALLQLVRRLQALRLEREEYVLLKALALANSDSVHIEDAEAVEQLREALHEALLEYEAGRAGPGGGAERRRAGRLLLTLPLLRQTAGKVLAHFYGVKLEGKVPMHKLFLEMLEAMMD
Take B1: the “fold increase of the MAPPIT signal on serum starvation” value is roughly 3 fold.

The values are drawn from article PMC11059514 (Molecular Metabolism, 2024).
